Test results from article PMC8519434, “The structure of nontypeable Haemophilus influenzae SapA in a closed conformation reveals a constricted ligand-binding cavity and a novel RNA binding motif” (PLoS ONE, 2021).

How the values were obtained:
SapA = target: T1, SapA (Haemophilus influenzae, UniProt Q4QL73); experiment: ITC (stoichiometry fixed to […]), crystal structure by hemin soaking ([…] Å), native PAGE shift; assay type: binding
T1 construct: residues 33 to 560, without the predicted signal peptide

[1] = system: SapA Q85S R101S (nontypeable Haemophilus influenzae 86-028NP); experiment: EMSA (agarose, decrease of rRNA bands)
[2] = target: T2, SapA (nontypeable Haemophilus influenzae 86-028NP) (UniProt Q4QL73); experiment: EMSA (agarose, decrease of rRNA bands)
T2 sequence: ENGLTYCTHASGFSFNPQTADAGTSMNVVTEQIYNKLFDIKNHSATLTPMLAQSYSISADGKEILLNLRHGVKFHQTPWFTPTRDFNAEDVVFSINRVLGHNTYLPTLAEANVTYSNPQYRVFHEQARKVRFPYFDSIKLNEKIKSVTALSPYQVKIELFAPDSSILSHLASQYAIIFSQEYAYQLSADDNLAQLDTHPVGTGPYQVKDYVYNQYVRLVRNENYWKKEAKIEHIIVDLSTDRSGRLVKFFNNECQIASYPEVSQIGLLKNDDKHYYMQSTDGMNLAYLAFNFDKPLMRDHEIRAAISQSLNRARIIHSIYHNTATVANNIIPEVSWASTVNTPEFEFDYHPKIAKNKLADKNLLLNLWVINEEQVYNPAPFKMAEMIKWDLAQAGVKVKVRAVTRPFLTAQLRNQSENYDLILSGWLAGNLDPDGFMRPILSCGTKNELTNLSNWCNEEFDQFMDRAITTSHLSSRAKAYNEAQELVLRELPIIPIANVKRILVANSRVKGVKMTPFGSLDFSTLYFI

[3] = system: SapA R101S (nontypeable Haemophilus influenzae 86-028NP); experiment: EMSA (agarose, decrease of rRNA bands)

Compound	Kd (SapA)	Kd [1]	Kd [2]	Kd [3]
C=CC1=C(C)C2=Cc3c(C=C)c(C)c4[n]3[Fe][n]3c(c(C)c(CCC(=O)O)c3=CC3=NC(=C4)C(C)=C3CCC(=O)O)=CC1=N2 [heme]	282 ± 18.3 µM			
E. coli DH5alpha rRNA (16S + 23S bands of total RNA)		23 µM	4.4 µM	7.7 µM
